In patent US20050227296A1 (GENERAL HOSPITAL CORPORATION A MASSACHUSETTS, published 2005):

Biological target: T1, complement iC3b on erythrocytes (EAiC3b) (human, UniProt P01024 23-667; P01024 749-1303; P01024 1321-1663, limits assumed)
T1 construct: iC3b is a multi-chain fragment of C3; also called human iC3b
Assay: fluoresceinated EAiC3b on immobilized protein
Description: For the inhibition studies, E were preincubated with each recombinant protein or pure peptide in the presence of 2% BSA for 5 minutes at RT and added to wells coated with immobilized protein or peptide without washing, unless otherwise indicated. At the end of the binding reactions, wells were washed, examined briefly by light microscopy then solubilized with 1% SDS-0.2 N NaOH. Fluorescence was quantified (excitatory wavelength, 490 nm, emission wavelength, 510 nm) using a SLM 8000 fluorometer (SLM Instruments, Urbana, Ill.). In experiments where the effects of individual divalent cations were measured, Ca²⁺ and Mg²⁺ were replaced with metal-free buffers or with buffers containing each cation at 1. MM, unless otherwise indicated. The effect of temperature was evaluated in the presence of 1 mM MnCl₂ at 37° C. and at 4° C.

T1 sequence (P01024 23-667 limits assumed, chain 1 of 3): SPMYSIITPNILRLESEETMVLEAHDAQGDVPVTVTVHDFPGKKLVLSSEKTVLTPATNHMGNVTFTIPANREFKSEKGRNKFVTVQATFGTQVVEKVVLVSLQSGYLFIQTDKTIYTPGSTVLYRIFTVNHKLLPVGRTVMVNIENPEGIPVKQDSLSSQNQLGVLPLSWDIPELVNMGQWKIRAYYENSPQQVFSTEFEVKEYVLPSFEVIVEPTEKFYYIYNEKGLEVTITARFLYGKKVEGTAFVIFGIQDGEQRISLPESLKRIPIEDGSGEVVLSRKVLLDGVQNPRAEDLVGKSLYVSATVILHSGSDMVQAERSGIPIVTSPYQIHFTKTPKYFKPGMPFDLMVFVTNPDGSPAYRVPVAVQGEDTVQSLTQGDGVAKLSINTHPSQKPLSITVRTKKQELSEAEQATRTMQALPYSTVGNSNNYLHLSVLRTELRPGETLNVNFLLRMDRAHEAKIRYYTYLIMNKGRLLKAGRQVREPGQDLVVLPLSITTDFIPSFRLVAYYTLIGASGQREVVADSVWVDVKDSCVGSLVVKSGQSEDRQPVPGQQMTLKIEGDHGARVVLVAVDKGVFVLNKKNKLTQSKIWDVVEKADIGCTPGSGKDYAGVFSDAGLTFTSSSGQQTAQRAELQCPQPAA
T1 sequence (P01024 749-1303 limits assumed, chain 2 of 3): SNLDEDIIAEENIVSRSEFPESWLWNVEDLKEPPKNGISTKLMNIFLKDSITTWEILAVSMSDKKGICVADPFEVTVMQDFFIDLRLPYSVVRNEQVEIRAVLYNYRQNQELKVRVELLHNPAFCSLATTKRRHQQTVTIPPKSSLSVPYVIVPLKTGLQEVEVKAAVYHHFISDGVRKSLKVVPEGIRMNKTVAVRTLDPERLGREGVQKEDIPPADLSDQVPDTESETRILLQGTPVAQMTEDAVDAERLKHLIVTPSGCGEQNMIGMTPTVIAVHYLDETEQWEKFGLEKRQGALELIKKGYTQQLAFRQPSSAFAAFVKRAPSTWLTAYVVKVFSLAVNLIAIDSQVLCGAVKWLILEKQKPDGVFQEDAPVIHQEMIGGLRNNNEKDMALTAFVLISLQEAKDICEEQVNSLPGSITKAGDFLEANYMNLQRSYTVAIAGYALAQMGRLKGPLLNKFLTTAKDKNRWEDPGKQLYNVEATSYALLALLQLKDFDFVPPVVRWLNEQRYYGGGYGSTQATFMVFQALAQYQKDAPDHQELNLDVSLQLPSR
T1 sequence (P01024 1321-1663 limits assumed, chain 3 of 3): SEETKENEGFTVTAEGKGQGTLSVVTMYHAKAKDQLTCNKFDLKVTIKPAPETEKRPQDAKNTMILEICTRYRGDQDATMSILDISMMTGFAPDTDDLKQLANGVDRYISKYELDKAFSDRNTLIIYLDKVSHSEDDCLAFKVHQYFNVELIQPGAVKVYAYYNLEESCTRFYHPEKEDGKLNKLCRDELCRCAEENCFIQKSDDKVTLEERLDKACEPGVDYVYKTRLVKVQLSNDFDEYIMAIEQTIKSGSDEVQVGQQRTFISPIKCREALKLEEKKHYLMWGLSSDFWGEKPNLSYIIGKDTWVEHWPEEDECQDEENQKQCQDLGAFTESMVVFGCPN

B1: recombinant CD11a A domain (receptor, human, UniProt P20701 153-332, looked up)
chain: GNVDLVFLFDGSMSLQPDEFQKILDFMKDVMKKLSNTSYQFAAVQFSTSYKTEFDFSDYVKRKDPDALLKHVKHMLLLTNTFGAINYVATEVFREELGARPDATKVLIIITDGEATDSGNIDAAKDIIRYIIGIGKHFQTKESQETLHKFASKPASEFVKILDTFEKLKDLFTELQKKIY
notes: domain: A domain; Expressed as a GST fusion in E. coli, used as such or released by thrombin; also called r11aA; rCD11a A-domain
- binding result: no binding
